{"source": "paper PMC6906691", "assay_in_all_cases": "chemical modification", "settings_in_all_cases": "37 °C, added salt not given, universal pH buffer: 5 mM CHES, 5 mM HEPES, 5 mM MES, degassed and charged with nitrogen", "key": {"[1]": {"biological_target": "Cys3 (position 3, ---YGCAAAAA)"}, "[2]": {"biological_target": "Cys3 (position 3, ---YGCPAADA)"}, "[3]": {"biological_target": "Cys3 (position 3, ---RRCPYSDA)"}, "[4]": {"biological_target": "Cys3 (position 3, ---YGCAAADA)"}, "[5]": {"biological_target": "Cys3 (position 3, ---KKCPYSDA)"}, "[6]": {"biological_target": "Cys3 (position 3, ---KKCPYSAA)"}, "[7]": {"biological_target": "Cys3 (position 3, ---KKCPYSAD)"}, "[8]": {"biological_target": "Cys3 (position 3, ---GGCPYADA)"}, "[9]": {"settings": "free peptide, 2-4Zn(II) absent. Peptide-a of this series, which lacks Cys, is described as a random coil without zinc complex."}, "[10]": {"settings": "peptide (4 µM) in binding complex with the tetranuclear zinc complex 2-4Zn(II) (14 µM), alpha-helical conformation induced by the complex"}}}
{"protein": "YGCAAAAAADDDDGDDDD", "note": "[peptide-i (D4-tag peptide) (synthetic construct)]", "values": [{"measurement": "pKa", "setting": "[1]; [9]", "result": 8.96}, {"measurement": "pKa", "setting": "[1]; [10]", "result": 8.22}]}
{"protein": "YGCPAADAAADAAADAAAD", "note": "[peptide-f (synthetic construct)]", "values": [{"measurement": "pKa", "setting": "[2]; [9]", "result": 8.93}, {"measurement": "pKa", "setting": "[2]; [10]", "result": 7.80}]}
{"protein": "RRCPYSDAAADAAADAAAD", "note": "[peptide-h (synthetic construct)]", "values": [{"measurement": "pKa", "setting": "[3]; [9]", "result": 8.02}, {"measurement": "pKa", "setting": "[3]; [10]", "result": 7.18}]}
{"protein": "YGCAAADAAADAAADAAAD", "note": "[peptide-d (Asp-rich alpha-helical tag peptide) (synthetic construct)]", "values": [{"measurement": "pKa", "setting": "[4]; [9]", "result": 8.89}, {"measurement": "pKa", "setting": "[4]; [10]", "result": 7.94}]}
{"protein": "KKCPYSDAAADAAADAAAD", "note": "[peptide-g (synthetic construct)]", "values": [{"measurement": "pKa", "setting": "[5]; [9]", "result": 8.04}, {"measurement": "pKa", "setting": "[5]; [10]", "result": 7.13}]}
{"protein": "KKCPYSAADAAADAAADAAAD", "note": "[peptide-k (helixD2-tag peptide) (synthetic construct)]", "values": [{"measurement": "pKa", "setting": "[6]; [9]", "result": 7.95}, {"measurement": "pKa", "setting": "[6]; [10]", "result": 7.14}]}
{"protein": "KKCPYSADAAADAAADAAAD", "note": "[peptide-j (synthetic construct)]", "values": [{"measurement": "pKa", "setting": "[7]; [9]", "result": 7.94}, {"measurement": "pKa", "setting": "[7]; [10]", "result": 7.08}]}
{"protein": "GGCPYADAAADAAADAAAD", "note": "[peptide-e (Cys-Pro-Tyr-Ala glutaredoxin-mimicking tag peptide) (synthetic construct)]", "values": [{"measurement": "pKa", "setting": "[8]; [9]", "result": 8.48}, {"measurement": "pKa", "setting": "[8]; [10]", "result": 7.46}]}
